# Test: yeast display, Sf9 membrane polyspecificity reagent, FACS + sequencing; frameworks hold sequencing errors
# How it was run: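 Synthetic nanobody libraries on Saccharomyces cerevisiae BJ5465 were galactose-induced for 36–48 hours, stained 1 hour at 4 °C with 10% biotinylated, detergent-solubilized Sf9 membrane reagent and enriched on streptavidin microbeads. FACS then separated cells into low and high (top ~1%) gates by anti-HA (expression) and streptavidin (reagent binding) fluorescence. Genes were colony-PCR amplified, MiSeq 2 × 250 sequenced and CDR-length filtered. A clone's polyreactivity label is that of its gate of origin.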
row,Sequence,polyreactivity (PSR sort gate)
1,QVQLVESGGGLVQAGGSLRLSCAASGITFSGNAMGWYRQAPGKERELVAAISGRGGSTYYADSVKGRFTISRDNAKNTVYLQMNSLKPVDTAVYYCAADSPENRYNYWGQGTQVTVSS,high polyreactivity
2,QVQLVESGGGLVQAGGSLRLSCAASGFTFYSYAMGWYRQAPGKERELVATITASGGSTYYADSVKGRFTISRDNAKNSVYLQMISLKPEDTAVYYCAAYHPHGFDYYRYYYWGQGTQVTVSS,high polyreactivity
3,QVQLVESGGGLVQAGGSLRLSCAASGRTFGNYAMGWYRQAPAKESELVAAITGRGGSTHYADSVKGRFTISRDNAKYTVYLQMNSLKPEDTAVYDCAADYRYNRGITSNKDYDYWGQGTQVTVSS,low polyreactivity
4,QLQHVESGGGLVQAGGSLRLSCAASGGIFGIYAMGWYRQAPGKESELVAAISRRGGSTYFADSVKGRFTISRDNAKNTVYLQMKSLKPADTAVYYCAAVRRGVNTSFGYRPLNYWGQGTEVTVSS,high polyreactivity
5,QVQLVESGGGLVQAGGSLRLSCAASGSTFRGYAMGWYRLAPGKEREFVASISLSGGSTYYADSVKGRFTISRDNAKNTVDSQMNSRKPEDTAVYDGAARARGYGWRGDYWGQGTHVTVSS,low polyreactivity
6,QVQLVESGGGLVQAGGSLRLSCAASGRTFRLNAMGWYRQAPGKERELVARITGSSGGSTYYADSVKGRFTISRDNAKNTVYLQMNSLKPEDTAVYYCNKRVGFLYKYDYWGQGTQVTVSS,high polyreactivity
7,QVQLVESGGGLVQAGGSLRLSCAASGRIFAVNALGWYRQAPGPERELVATIRGSGTSTYYADSVKGRFTISRDHATNTVYLQMNSLKPEDTAVYYCAKAYNGRYTWRYDYWGQGTQVTVSS,high polyreactivity
8,QVHLVESGGGLVQAGGCLRLSCAASGSIVGYNTMGWYRQAPGKERALVAAISSSGTSTNYPDSVKGRFTISRDNAKNTVYLQMNSLKPDDTAVFYCNTVLRVWSRSGYDYWGQGSQVTVSS,high polyreactivity
9,QVQLVESGGGLVQAGGSLRLSCAASGITFVRNAMGWYRQAPGKERELVAAISGRGGITYYADSVKGRFTISRDNAKNTVYFQMNSLKPEDTAVYYCAASSAGSSYNYWGQGSQVTVSS,high polyreactivity
10,QVQLVESGGGLVQAGGSLRLSCAASGSIFWIYAMVWSRQAPGKERELVAVISDRGARTYYADSVKGRFTLSRDNAKNTVYLQMNSLKPEDTAVYYCNADTRQARLQKMDSWGQGTQVTVSS,high polyreactivity
11,QVQLVESGAGLVQAGGSLRLSCAASGITFYDNDMGWYRQPPGKERELVAGITGTTVGTYYADSVKGRFTISRDIAKNTVYLQMNSLKPEDTAVYYALLTVVVPYQYYSLSLNTLDSWGQGTQVTVSS,low polyreactivity
12,QVQLVESGGGLVQAGGSLRLSCAASGSTFTVNGMGWYRQAPGKERELVAAITWSGGSTYYADSVKGRFTISRDTAKNTVYLQMNSLKPEDTAVYYCAADENLYITGYDYWGQGTQVNVSS,low polyreactivity
13,QVQLVDSGGGLVQAGGSLRLSCAASGRTFDGYAMGWYRQAPGKERELVAAISRTGGSTYYADSVKGRFTISRENAKNTVYLLMTSLKPEDTAVYYCNAVTLSSTYGGHDYWGQGTQVTVSS,high polyreactivity
14,QVQLVESGGGFVQAGGSLRLSCAASGSIFVTNAMGWYRQAPGKDRELVAAISVSGGSTYYADSVKGRFTISRDNAKNTVYLQMNSLKPEDTAVYYCNTVRSPPGHDYWGLGTQVTVSS,low polyreactivity
15,QVQLVESGGGLVQAGGSLRLSCAASGSTFEGNAMVWYRPAPGKERELVAAISSGGRTYYADSVKGRFTISRDNAKNTVYLQMNSLKPEDTAVYYCAAYVRRGFDWGQGTQVTVSS,high polyreactivity
16,QVQLVESGGGLVQAGGSLRLSCAASGSIFSPNDMGWYRQAPGKERELVAAITTAGSTYYADSVKGRFTISRDTAKNTVYLQMNSLKPEDTAVYYCAATYISVTDYAYFPLWYGYWGEGTQVTVSS,low polyreactivity
17,QVHLVESGGGLVQAGGSLRLSCAASGFIFRIYAMGWYRQAPGKERELVAAINSSVSTSYADSVKGRFTISRDNAKNTVYLQMNSLKPEDTAVYYCAASRWPYPSYLYIVDSWGQGTQVTVSS,low polyreactivity
18,QVQLLDAGGGLDQAGGSLRLRCAASGSIFRYYPMGWYRQAPGKQREMVASISWSGTSTYYADSVKGRFTISRDNAKNTVYLPRNSLKPEDTAVYYCNKDRWGRYYTRYDYWGQGTQVTVSS,high polyreactivity
19,QVQLVESGGGLVQAGGSLRLSCAASGSTFSEYVMGWYRQAPGKERELVAVITTGTSTNYADSVKGRFTISRDNAKNTVYLQMNSLKPEDTAVYYCNAEYLYGVRYHDYWNDFDYWGQGTQVTVSS,low polyreactivity
20,QVQLVESRGGLVQARGSLRLSSAASGRIFSDYAMGCYRQAPGKERDLVATISGGITNYADSVKGRFTISRDNANNTVYLQMNSLKPEDTAVYYCATVDGAYQYTYDYWGEGTQVTVSS,low polyreactivity
21,QVQLVESGGGLVQAGGSLRLSCAAYGSTFYAYAMGWYRQAPGKERELVAAIDSGGSTYYADSVKGRFTISRDNAKNTVYLQMNSLKPEDTAVYYCAVRHRYTRAYWGRDYWGQGTQVTVSS,low polyreactivity
22,QVQLVESGGGLVQAGGSLRLSCAASGRTFRPYAMGWYRQAPGKERELVAAISSGGSTYYADSVKGRFTISRDNAKNTVYLQMNSLKPEDTAVYYCNAVGLWARDYGYWGQGTQVTVSS,high polyreactivity

row,Sequence,polyreactivity (PSR sort gate)
1,QVQLVESGGGLVQAGGSLRLSCAASGFIFVPYAMGWYRQAPGKEREFVAAIRCSGGRTYYADSVKGRFSISRDYAKNTVYLQMNSLKPDDTAVYYCAADTWQDRVRKTSFGYDYWGQGTQVTVSS,high polyreactivity
2,QVQLVESGGGLVQAGGSLLLSCAPSGRTFPLNAMGWSRQAPGKERELVAAITWSGGRTYYADSVKGRFTISRDNAKNTVYLQMNSLKPEDTAVYYCAAKRTTWKIQSGYDYWGKGTQVTVSS,low polyreactivity
3,QVQLVESGGGLVQAGGSLRLSCAASGFIFGHYAMGWYRQAPGKERELVATISSGGSTKYADSVKGRFTISRDNAKNTVYLQMNSLKPEDTAVYYCAKKLWYLYHHYDYWGQGTQVTVSS,low polyreactivity
4,QVQLVESGGGLVQAGGSLRLSCAASGRTIVRYAMGWYRQAPGKERDLVAAITARGGSTYYADSVKGRFTISRDNAKNTVYLQMNRLKPEDTEVYYCATYYSGSLGRYYYWGKGTQVTVSS,high polyreactivity
5,QVQLVESGGGLVQAGGSLRLSCAASGSTFHLYAMGWYRQAPGKERELVASITWSGGRTYYADSVKGRFTISRDYAKNTVYLHMNSLKPEDTAVYYCAAGDVNWSYSLLYTVVLYDSWGQGTQVTVSS,high polyreactivity
6,QVQLVESGGGLVQAGGSLRLSCAASGLTFPDNAMGWYRQAPGKERELVAAITIDGSTYYADSVKGRFTISRDNAKNTVYLQMNSLKPEDTSVYYCNALVGVPYAMYYWGQGTQVTVSS,low polyreactivity
7,QVQLVESGGGLVQAGGSLRLICAASGRIFKNNAMGWYRQAPGKEREFVAAISSIGGRTYYADSVKGRFTISRDNAKNTVYLQMISLKPEDTAVYYCAARGYTGGLWYDYWGQGTQVTVSS,high polyreactivity
8,QVQLVESGGGLVQAGGSLRLSCAASGNTFDYYDMGWYSQAPGKERELVAAGSGGSTYYADSVKGRFTISRDNAKHTVYLQMNSLKPEDTAVYYCAARDRYYFGGMYYWGQGTQVTVSS,low polyreactivity
9,QVQLVESGGGLVQAGGSLRVSSAASGRIFSIYAMGWYRQAPGKERELVAAISFRGTSTYADSVKGRFTISRDNAKNTVYLQMNSLKPEDTAVYFCAVSGFDVLWPSLGGELDYWGQGTQVTVSS,low polyreactivity
10,QVQLVESGGGLVQAGGSLRLSCAASGSIFKEYAMGWYRQAPGKERELVATISWSGGSTYYADSVKGRFTISRDNAKNTVYLQMNSLKPEDTAVYYCNKRTPWWYVVRYDYWGQGTQVTVSS,high polyreactivity
11,QVQLVESGGGLVQAGGSLRLSCAASGSTFGFNVMGWYRPAPGKERELVAAIRYRDGSTYYADSVKGRFTISRDNAKNTVYLQMNSLKPEDTAVYYCNTRITQVGDYIYDYWGQGTQVTVSS,low polyreactivity
12,QVQLVESGGGLVQAGGSLRLSCAASGSIFWSYAMGWYRQAPGKERELVAAITWSGGNTYADSVKGRFTISRDNAKNTVYLQMNSLTPEDTAVYYCAAYPAHGTKWYVYPSHDDYWGQGTQVNVSS,low polyreactivity
13,QDQLVESGGGLVQAGGSLRLSCAASGFTIDPYAMGWYRPAPGKERELVAGISWSGGSTYYADSVKGRFTISRDNAKNTVYLQMNSLKPEVTAVYYCARDYSWLTRGSDYDYWGQGTQVTVSS,low polyreactivity
14,QVQLVESGGGLVQAGGSLRLSCAASGRTFRKYAMGWYRQAPGKERELVAAISWSGGSRYYANSVKGRFTISRDNAKNTVYLQMNSLKPEETAVYYCSAVPVHTGSLYWGFTTGYDYWGQGTQVTVSS,low polyreactivity
15,QVQLVESGGGLVQAGGSLRLSCAASGRIFPYYAMGWYRQAPGKERELVAAISRIGGRTYYADSVKGRFTISRDNAKNTVYLQMNSLKPEDTAVYYCAAGYGGTFNCGQGTQVTVSS,high polyreactivity
16,QVQLVDSGGGLVQAGGSLRLSCAASGPIFKRYAMGWYRQAPGKERELVASITTSGDSTYYADSVKGRFTISRDNAKNTVYLQMNSLKPEDTAVYYCAGRSYSGRRYDYWGQGTQVTVSS,high polyreactivity
17,QVQLVESGGGLVQAGGSLRLSCAASGRTFESNAMGWYRQAPGKERELVAGITSGGITNYADSVKGRFTISRDNAKNTVYLQMNSLKPEDTAVYYCEFYYWGQGTQVTVSS,low polyreactivity
18,QVQLVESGGGLVQAGGSLRLSCAASGITIFRYALGWSRQAPGKERELVAAISSSGGSTYYADSVKGRFTISRDNAKNTVYLQMNSLKPEDTAVYYCAAAHGYRYYWGQGTQVTVSS,high polyreactivity
19,QVQLVESGGGLVQAGGSLRLICAASGRIFGVYAKGWYRQAPGKERDFVATNSNRGGGSTYYADSVKGRFTISRDNAMNTVYLQMNSLKPEDTSVYYCNVRARYPFGYDYWGQGTQVTVSS,high polyreactivity
20,QVQLLESGGGLVQAGGSLRLSCAASGSTFKKNAMGWYRQAPGKETELVAAISGIGTRTSYADSVKGRFTISRDNAKNTVYLQMNSLKPEDTAVYYCAARYYGFPSTLKYDYWGQGTQVTVSS,high polyreactivity
21,QVQLVESGGGLVQAGGSLRLSCAASGFTFGGYAMGCYRQAPGKESELVAAISGRGGRTYYADSVKGRFTISRDNAKNTVYLQMNSLKPEDTAVYYCAAPTNHWTRLSGDYWGQGTQVTVSS,high polyreactivity
